How the values were obtained:
P1 = molecular target: T1, P1 (human); assay: ELISA on coated MUC1-C/ECD antigen with or without peptide (indirect)
T1 construct: Synthetic overlapping peptide of MUC1-C/ECD; also called peptide P1
T1 peptide: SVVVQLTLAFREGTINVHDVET
Procedure: (§1) Characterized of 7B8 and 3D1 antibodies. Linear epitope mapping of 7B8 and 3D1 clones was performed using three overlapping peptides spanning the entire MUC1-C/ECD region (58 amino acids) were synthesized. ELISA assays were performed using 7B8 or 3D1 purified antibodies in the presence or absence of P1, P2 or P3 peptides. […] Conformational epitope mapping of 7B8 and 3D1 was performed using eight critical individual point mutants in the MUC1-C/ECD region by ELISA. […] These findings indicate that D19 is a part of the conformational core/pocket for 3D1 binding. ZR-75-1 breast carcinoma cells were used determine 7B8 or 3D1 antibody binding in a competitive format with MUC1-C/ECD and analyzed by FLOW. […] These findings indicate that the conformational binding epitopes of 7B8 and 3D1 are different. The sequencing results for hybridoma 3D1 is shown in FIG. 50 and is discussed in greater detail below.

P2 = molecular target: T2, P2 (human); assay: as above
T2 construct: Synthetic overlapping peptide of MUC1-C/ECD; also called peptide P2
T2 peptide: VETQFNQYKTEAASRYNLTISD
Procedure: as §1

P3 = molecular target: T3, P3 (human); assay: as above
T3 construct: Synthetic overlapping peptide of MUC1-C/ECD; also called peptide P3
T3 peptide: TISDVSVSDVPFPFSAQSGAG
Procedure: as §1

MUC1-C/ECD protein = molecular target: T4, MUC1-C/ECD protein (human, UniProt P15941 1098-1155); assay: ELISA, plates coated with the MUC1-C/ECD antigen; soluble MUC1-C/ECD protein also abrogated 3D1 binding to cells
T4 construct: also called MUC1-C/ECD antigen; the antigen
T4 sequence: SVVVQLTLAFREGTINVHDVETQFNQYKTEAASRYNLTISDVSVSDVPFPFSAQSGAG

binding result (P1): no binding | binding result (P2): no binding | binding result (P3): no binding | binding result (MUC1-C/ECD protein): binds
B1: 441.3.3D1.D6.D11.B1.F10 (antibody, V domains shown)
VH: QVQLQQSGAELVRPGSSVKISCKTSGYAFSNFWMNWVKQRPGQGLEWIGQIYPGDGDTNYNGKFKGKATLTADKSSSTAYMQLSSLTSEASAVYFCARSYYRSAWFAYWGQGTLVSVSA
VL: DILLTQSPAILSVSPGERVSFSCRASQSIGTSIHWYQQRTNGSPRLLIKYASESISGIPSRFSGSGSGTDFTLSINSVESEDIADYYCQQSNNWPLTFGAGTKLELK
notes: Mouse hybridoma antibody; also called Anti-Muc-1; 536064-1

Reference: patent publication US20160340442A1 (Dana-Farber, published 2016)
